Results published in publication PMC5031503.
Substitutions are numbered along the chain they refer to. Names and notes keep the numbering of the source.

B1: GFP-Lpd (Lamellipodin, wild type), Q70E73 Y366F; Y426F; Y456F; Y466F; Y481F; Y510F (protein)
chain: MEQLSDEEIDHGAEEDSDKEDQDLDKMFGAWLGELDKLTQSLDSDKPMEPVKRSPLRQETNMANFSYRFSIYNLNEALNQGETVDLDALMADLCSIEQELSSIGSGNSKRQITETKATQKLPVSRHTLKHGTLKGLSSSSNRIAKPSHASYSLDDVTAQLEQASLSMDEAAQQSVLEDTKPLVTNQHRRTASAGTVSDAEVHSISNSSHSSITSAASSMDSLDIDKVTRPQELDLTHQGQPITEEEQAAKLKAEKIRVALEKIKEAQVKKLVIRVHMSDDSSKTMMVDERQTVRQVLDNLMDKSHCGYSLDWSLVETVSELQMERIFEDHENLVENLLNWTRDSQNKLIFMERIEKYALFKNPQNFLLGKKETAEMADRNKEVLLEECFCGSSVTVPEIEGVLWLKDDGKKSWKKRYFLLRASGIFYVPKGKAKVSRDLVCFLQLDHVNVYYGQDFRNKYKAPTDFCLVLKHPQIQKKSQFIKYLCCDDVRTLHQWVNGIRIAKYGKQLFMNYQEALKRTESAYDWTSLSSSSIKSGSSSSSIPESQSNHSNQSDSGVSDTQPAGHVRSQSIVSSVFSEAWKRGTQLEESSKARMESMNRPYTSLVPPLSPQPKIVTPYTASQPSPPLPPPPPPPPPPPPPPPPPPPPLPSQSAPSAGSAAPMFVKYSTITRLQNASQHSGALFKPPTPPVMQSQSVKPQILVPPNGVVPPPPPPPPPPTPGSAMAQLKPAPCAPSLPQFSAPPPPLKIHQVQHITQVAPPTPPPPPPIPAPLPPQAPPKPLVTIPAPTSTKTVAPVVTQAAPPTPTPPVPPAKKQPAFPASYIPPSPPTPPVPVPPPTLPKQQSFCAKPPPSPLSPVPSVVKQIASQFPPPPTPPAMESQPLKPVPANVAPQSPPAVKAKPKWQPSSIPVPSPDFPPPPPESSLVFPPPPPSPVPAPPPPPPPTASPTPDKSGSPGKKTSKTSSPGGKKPPPTPQRNSSIKSSSGAEHPEPKRPSVDSLVSKFTPPAESGSPSKETLPPPAAPPKPGKLNLSGVNLPGVLQQGCVSAKAPVLSGRGKDSVVEFPSPPSDSDFPPPPPETELPLPPIEIPAVFSGNTSPKVAVVNPQPQQWSKMSVKKAPPPTRPKRNDSTRLTQAEISEQPTMATVVPQVPTSPKSSLSVQPGFLADLNRTLQRKSITRHGSLSSRMSRAEPTATMDDMALPPPPPELLSDQQKAGYGGSHISGYATLRRGPPPAPPKRDQNTKLSRDW
B2: GFP-Lpd (Lamellipodin, wild type), Q70E73 Y366F; Y426F; Y456F; Y466F; Y481F; Y510F; Y513F; Y1226F (protein)
chain: B1 chain with Y513F, Y1226F
B3: GFP-Lpd (Lamellipodin, wild type), Q70E73 Y426F; Y456F; Y513F; Y1226F (protein)
chain: B1 chain with F366Y, F466Y, F481Y, F510Y, Y513F, Y1226F

Biological target: Myc-tagged Scar/WAVE complex (Myc-Pir121, Myc-Nap1, Myc-Abi1d, Myc-WAVE2), Q96F07;Q9Y2A7;Q9Y6W5
Assay: co-immunoprecipitation, quantified western blot band intensities
Conditions: chain shown with the change; HEK293FT cells; n=4; Scar/WAVE2 normalized against the immunoprecipitated Lpd; parent: est. 100; read off a plot

Myc-tagged Scar/WAVE complex (Myc-Pir121, Myc-Nap1, Myc-Abi1d, Myc-WAVE2), Q96F07;Q9Y2A7;Q9Y6W5, sequence (chain, as listed by the source, chain 1 of 3): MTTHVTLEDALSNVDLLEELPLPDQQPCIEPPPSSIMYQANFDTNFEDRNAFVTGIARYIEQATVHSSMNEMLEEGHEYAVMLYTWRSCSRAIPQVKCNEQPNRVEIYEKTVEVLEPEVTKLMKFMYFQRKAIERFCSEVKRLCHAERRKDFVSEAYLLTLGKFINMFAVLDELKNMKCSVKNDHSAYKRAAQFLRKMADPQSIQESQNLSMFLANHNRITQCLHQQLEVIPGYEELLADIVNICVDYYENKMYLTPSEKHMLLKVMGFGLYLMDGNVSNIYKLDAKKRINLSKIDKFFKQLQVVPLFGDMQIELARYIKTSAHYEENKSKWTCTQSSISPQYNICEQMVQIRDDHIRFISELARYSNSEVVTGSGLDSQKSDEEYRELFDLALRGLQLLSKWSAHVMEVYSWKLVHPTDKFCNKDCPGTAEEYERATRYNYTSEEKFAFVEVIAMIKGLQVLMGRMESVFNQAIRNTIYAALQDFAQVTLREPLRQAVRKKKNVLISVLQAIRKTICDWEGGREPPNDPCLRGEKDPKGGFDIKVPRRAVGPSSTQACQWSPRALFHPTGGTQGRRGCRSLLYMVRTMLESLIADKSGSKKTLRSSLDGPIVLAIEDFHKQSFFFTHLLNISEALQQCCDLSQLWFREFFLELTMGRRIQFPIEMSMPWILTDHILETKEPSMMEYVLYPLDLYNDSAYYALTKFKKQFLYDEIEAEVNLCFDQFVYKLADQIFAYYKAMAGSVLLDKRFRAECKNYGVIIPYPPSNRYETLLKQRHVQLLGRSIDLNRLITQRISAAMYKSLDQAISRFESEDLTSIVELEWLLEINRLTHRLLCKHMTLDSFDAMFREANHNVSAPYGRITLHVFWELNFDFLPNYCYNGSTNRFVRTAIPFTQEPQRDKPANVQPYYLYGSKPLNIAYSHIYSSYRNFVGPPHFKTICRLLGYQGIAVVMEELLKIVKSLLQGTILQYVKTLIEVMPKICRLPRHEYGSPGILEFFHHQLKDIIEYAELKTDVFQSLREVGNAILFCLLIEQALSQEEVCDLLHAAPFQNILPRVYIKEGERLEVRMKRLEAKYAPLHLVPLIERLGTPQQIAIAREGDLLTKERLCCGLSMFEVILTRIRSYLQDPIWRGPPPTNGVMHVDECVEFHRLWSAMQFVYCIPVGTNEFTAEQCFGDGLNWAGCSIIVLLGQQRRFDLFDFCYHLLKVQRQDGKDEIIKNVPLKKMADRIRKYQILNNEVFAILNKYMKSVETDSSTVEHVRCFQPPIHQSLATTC
Myc-tagged Scar/WAVE complex (Myc-Pir121, Myc-Nap1, Myc-Abi1d, Myc-WAVE2), Q96F07;Q9Y2A7;Q9Y6W5, sequence (chain, as listed by the source, chain 2 of 3): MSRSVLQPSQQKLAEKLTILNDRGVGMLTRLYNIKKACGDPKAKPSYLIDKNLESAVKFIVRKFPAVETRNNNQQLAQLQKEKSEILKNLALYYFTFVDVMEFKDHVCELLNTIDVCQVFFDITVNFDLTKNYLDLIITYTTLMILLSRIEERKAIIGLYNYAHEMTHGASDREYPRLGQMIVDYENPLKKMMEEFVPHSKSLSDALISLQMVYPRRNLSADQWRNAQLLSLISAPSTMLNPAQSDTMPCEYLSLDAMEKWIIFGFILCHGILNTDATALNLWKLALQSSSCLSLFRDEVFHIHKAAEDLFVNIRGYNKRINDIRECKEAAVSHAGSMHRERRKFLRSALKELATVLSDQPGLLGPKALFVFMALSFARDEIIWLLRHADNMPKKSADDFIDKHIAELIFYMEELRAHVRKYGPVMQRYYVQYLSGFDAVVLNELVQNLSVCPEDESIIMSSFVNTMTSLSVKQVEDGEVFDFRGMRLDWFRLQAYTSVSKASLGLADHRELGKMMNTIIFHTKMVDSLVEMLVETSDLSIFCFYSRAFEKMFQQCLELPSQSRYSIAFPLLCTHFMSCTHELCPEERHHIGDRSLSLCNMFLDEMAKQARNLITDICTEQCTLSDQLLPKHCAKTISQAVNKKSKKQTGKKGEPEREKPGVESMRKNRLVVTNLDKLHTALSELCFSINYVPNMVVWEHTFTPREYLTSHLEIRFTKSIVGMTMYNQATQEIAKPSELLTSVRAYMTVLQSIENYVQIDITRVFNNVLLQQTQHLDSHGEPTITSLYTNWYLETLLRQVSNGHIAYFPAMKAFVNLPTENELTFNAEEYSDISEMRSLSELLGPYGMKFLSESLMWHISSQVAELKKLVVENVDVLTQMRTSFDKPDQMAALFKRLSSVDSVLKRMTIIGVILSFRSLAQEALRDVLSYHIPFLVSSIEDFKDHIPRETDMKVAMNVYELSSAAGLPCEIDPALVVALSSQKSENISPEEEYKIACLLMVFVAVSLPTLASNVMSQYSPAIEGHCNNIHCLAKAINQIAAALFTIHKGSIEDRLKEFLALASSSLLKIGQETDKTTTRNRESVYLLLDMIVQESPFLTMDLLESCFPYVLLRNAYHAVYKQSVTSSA
Myc-tagged Scar/WAVE complex (Myc-Pir121, Myc-Nap1, Myc-Abi1d, Myc-WAVE2), Q96F07;Q9Y2A7;Q9Y6W5, sequence (chain, as listed by the source, chain 3 of 3): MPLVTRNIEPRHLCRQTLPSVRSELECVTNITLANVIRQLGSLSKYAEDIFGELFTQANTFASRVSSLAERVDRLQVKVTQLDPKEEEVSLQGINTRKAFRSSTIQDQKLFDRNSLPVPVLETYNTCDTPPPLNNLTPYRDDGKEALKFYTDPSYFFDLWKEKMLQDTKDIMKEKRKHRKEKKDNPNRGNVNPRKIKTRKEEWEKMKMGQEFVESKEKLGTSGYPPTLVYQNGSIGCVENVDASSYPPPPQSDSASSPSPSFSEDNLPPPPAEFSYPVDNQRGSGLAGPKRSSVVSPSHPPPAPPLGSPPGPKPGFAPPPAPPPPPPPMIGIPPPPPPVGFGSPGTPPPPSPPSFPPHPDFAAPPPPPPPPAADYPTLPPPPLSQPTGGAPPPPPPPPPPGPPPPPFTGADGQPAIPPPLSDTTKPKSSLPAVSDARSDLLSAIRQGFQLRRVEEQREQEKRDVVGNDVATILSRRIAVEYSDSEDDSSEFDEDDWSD

| Binder | percent of parent (% co-IP Lpd-WAVE2) |
| --- | --- |
| B1 | 39 |
| B2 | 31 |
| B3 | 41 |
